Assay results from the supplement of paper PMC9170038.

Tested on: MS2 coat protein
Test: apparent KD of MS2 coat protein; higher = weaker reporter binding
Conditions: Eterna round: R107
In short: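 Apparent KD is reported per design as the median of normalised binding-curve fits across its clusters. The RNA switches were made by on-chip transcription from Illumina sequencing clusters. SNAP-549-labelled MS2 coat protein was then added in twofold steps (0.7 or 1.5 nM to 3 µM; 0.8–1.5 h to 10–20 min per step) in 100 mM Tris-HCl pH 7.5, 80 mM KCl, 4 mM MgCl2, without or with constant ligand.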

[1] = input ligand: theophylline 20 uM
[2] = input ligand: theophylline 2 mM
[3] = input ligand: tryptophan 2.4 mM

Sequence	apparent KD of MS2 coat protein (input ligand: arginine 13.2 mM) [nM]	apparent KD of MS2 coat protein [1] [nM]	apparent KD of MS2 coat protein [2] [nM]	apparent KD of MS2 coat protein (input ligand: none) [nM]	apparent KD of MS2 coat protein [3] [nM]
AUACAUGAGGAUCACCCAUGUGAUGGCCGGCGAGGACCGGUACGGCCGCCACUCGUGAUCCGUCCUGAGAGCAAAGCCCUCAACA [Lequcele]	80.1	450	199		
AUACAUGAGGAUCACCCAUGUGAUGGCCGGCGAGGACCGGUACGGCCGCCACUCGUGAUCCGUCCUGAGAGCAAAGCCCUCAGCA [Onedti]	17.3	287	237		
AUACAUGAGGAUCACCCAUGUUAUAGUGAAGGAGCGACAUUUAGGUCAGGUAGGUCGCACUAUUGAAUUAUUAUCCUCUUUUCUU [JR_ExcArginiA_Sub021]	23.1	31.2	23.7	21.3	24.7
AUAUAUACAUGAGGAUCACCCAUGUUAUUUCGAGGACCGGUACGGCCGCCACUCGAUAGAGUAGAAGUAAAUUUUGAUUCAUGUA [JR_SSTryptoA_Sub009]	17.9	27	23.5		
AUAUUUAACGGAAGGAGCGCGGAUAAUAAAGUGGGUAAACAUGAGGAUCACCCAUGUAAACCGCAGGUAGGUCGCCGAUAUAUAU [AstrosEXyARgB#7]	26.4	54.8	51.2	63.6	41.4
AUCCUCUAGAAUGAUACCAGACCAAACAUGAGGAUCACCCAUGUAUCAGGCAAUUGUUACGUCCCUUGGCAGCAUGUAUGCCGAC [Theo B SS t3]	17.7	31.5			20.2
AUCGCACCUGGUGAUACCAGCAAUUGCUCGUGACAUGAGGAUCACCCAUGUGGCCAGUGAUGCCCUUGGCAGCAUGGUCGGUGCA [Same State - Theophylline B (Freestyle 25)]	98.2	335	64.5	317	288
AUCGCACCUGGUGAUACCAGCGUUUGCUCGCGACAUGAGGAUCACCCAUGUGGCCAGUGAUGCCCUUGGCAGCAUGGUCGGUGCA [Same State - Theophylline B (Freestyle 27)]	75.5	309			314
AUCUUUGACGAUCUGGGAAAACCAGAUCGGCGAGGACCGGUACGGCCGCCACUCGUGUAUAAUAUACAUGAGGAUCACCCAUGUA [#19 Tryptophan A Same State]	27.3	61.3	53.9		
AUGCACGGGCUAAUCUGCGAUUGGCACGAUACCAGAGAUCAAGACCUCCCUUGGCAGCGUGUCACAUGAGGAUCACCCAUGUGGA [theeternabot_exclusion_MS2_Theo_A_40]	43.4	127			141
AUGCAUAGCGGAAGGAGCGCAAUAGAAUGACAUGAGGAUCACCCAUGUAUGUGAUGUGGGUUGCAGGUAGGUCGCCGAGUGGUAU [Exclusion - Arginine B (Freestyle 1)]	70.7	98.8	62.6	60.5	55
AUGCCUAGUGGAAGGAGCGAGGGUCCUCUCAACAUGAGGAUCACCCAUGUUCUUUUGCACCCUCAGGUAGGUCGCCAUUGGGACA [Veanaris]	30.8	92.4	65.8	59.8	76
AUGGCGUUGGUGAGGCGGUUUAAUGGCGAUACCAGCGUGGAAACACGCCCUUGGCAGCGCCAAAACAUGAGGAUCACCCAUGUUA [Budejovice]	13.2	28	132	13.4	16.4
AUGUAGAACCGAAGGAGCGCGAUAACAUGAGGAUCACCCAUGUAGCUUUGGUGGCCUCGAUCGCAGGUAGGUCGCGGAAGUAGUA [Exclusion - Arginine B / A]	40.8	213	231	102	155
AUGUAGCCGUCGACUGUACCUUAUGCCGAUACCAGCUACCCGUGAAGCCCUUGGCAGCGGGAAACAUGAGGAUCACCCAUGUCAG [theeternabot_exclusion_MS2_Theo_A_13]	19.6	29.6			24.7
AUGUCGUUGAAUACAGCGGCAUGGUGUGAUACCAGAAUGAUCAAAUUCCCUUGGCAGCAUCACAUGAGGAUCACCCAUGUUAAGG [SSTheo A #17]	27.5	50			46.4
AUGUCGUUGAAUAUAGCGGCUUGGUGUGAUACCAGAAUGAUCUAAUUCCCUUGGCAGCAUUACAUGAGGAUCACCCAUGUUUAGG [SSTheo A #19]	24.4	29.6			28.8

Sequence	apparent KD of MS2 coat protein (input ligand: arginine 13.2 mM) [nM]	apparent KD of MS2 coat protein [1] [nM]	apparent KD of MS2 coat protein [2] [nM]	apparent KD of MS2 coat protein (input ligand: none) [nM]	apparent KD of MS2 coat protein [3] [nM]
AUUAUAGUUUAUAACGAAGUUGAUACAGAAGGAGCGUGAAUAAUCACAGGUAGGUCGCUGAUAAUACAUGAGGAUCACCCAUGUU [JR_Nu_SSArginiA_Sub018]	20.7	31.9	18.9	20.4	19.4
AUUCCAUAGGUGCAGUUGUUAAAUGGCGAUACCAGCGUGGAAACACGCCCUUGGCAGCGCCAAAACAUGAGGAUCACCCAUGUUA [Kladno]	48.3	111			94.8
AUUUACAUGGUCAUAUAUAUAUCGUCAGAUACCAGACGAGAUAUUGUCCCUUGGCAGCUGUUACAUGAGGAUCACCCAUGUAAUU [JR_Nu_ExcTheophyA_Sub021]	41	56.4			64.7
CAACUGCUUGAGCUUACUUAUUGGACUUCCCGAGGACCGGUACGGCCGCCACUCGCAGGGACACAUGAGGAUCACCCAUGUAAAG [theeternabot_exclusion_MS2_Trp_A_42]	17.3	21.1	19.6		
CAAGAAUGACGUACAGAUAACAAUAACGAUACCAGUACAUCAUUAUACCCUUGGCAGCGUUUCACAUGAGGAUCACCCAUGUACA [theeternabot_exclusion_MS2_Theo_A_14]	15.4	20.1			17.6
CAAUAUAUAUGAAGGAGCGUCGAAAAUGGGUAAACAUGAGGAUCACCCAUGUAAAGGGAACGACAGGUAGGUCGCAUAUGUAUUG [AstromonsSSArgB#9]	171	195	261	165	190
CAAUCUACCACCGGCCUACUGUACACUCGCCGAGGACCGGUACGGCCGCCACUCGACGUUCGACAUGAGGAUCACCCAUGUGGGU [theeternabot_exclusion_MS2_Trp_A_14]	80.1	200	289		
CACGAAAGAUCGGCCGCCACUAAUCUAUGUGUACUAGCACAUGAGGAUCACCCAUGUUCUUGCGUUAGGACCGGGAUUGAGCGUG [#03 Exclusion Tryptophan B]	23.4	27.6	24		
CAUAUAUAUAGAAGGAGCGUCGAAAAUGGGUAAACAUGAGGAUCACCCAUGUAAAGGGAACGACAGGUAGGUCGCUAUAUAUAUG [AstromonsSSArgB#3]	99.1	187	208	161	175
CAUCAUGGGCUUGGACAAAUUGUGCUUGAUACCAGAAAUCACCGGUUCCCUUGGCAGCAACCCACAUGAGGAUCACCCAUGUGGA [theeternabot_exclusion_MS2_Theo_A_4]	18.6	20.1			23
CCAUAUGUAACUGAUACCAGUGUACUGACAUGAGGAUCACCCAUGUUGGGUUUUGUUGUACACCCUUGGCAGCAGAAUCAUAUGG [AstrosExyTheB#17]	48.3	73.6			53.9
CCCAAGCCAGCUGAUACCAGUGACGUGGUCAGAAUGUGCGACAUGAGGAUCACCCAUGUACACCCUUGGCAGCAGUAGAACGGUU [theeternabot_exclusion_MS2_Theo_B_47]	13.6	18.9			14.9
CCGUAGCUAGGAAGGAGCGCAUACUUCACAUGAGGAUCACCCAUGUCGAGACGUGAGUCAGUGCAGGUAGGUCGCCUAGCUAUGG [Same State - Arginine B (Freestyle 28)]	23.5	26.4	30.5	15.5	15.7
CCUAUGCAGUCGGCCGCCACUGAACAUGAGGAUCACCCAUGUAAUUAAAAUUAAGGUCCUAAAAUCAGGACCGGGACUGUAUAGG [Ex Tryptophan B 6]	37.6	43.3	56.6		
CCUAUGCAGUCGGCCGCCACUGAACAUGAGGAUCACCCAUGUUAUUAUAAAUAUGGUCCUAAAAUCAGGACCGGGACUGUAUAGG [Ex Tryptophan B 8]	42.7	67.9	90		
CCUCAAUAGACGGCCGCCACUGAAACAUGAGGAUACAUGAGGAUCACCCAUGUGGGUGUGUUACGCAGGACCGGGUCAAGACCCG [Tryp B SS t1]	304	435	1280		
